Experimental data: PMC6818353, “Diversified Application of Barcoded PLATO (PLATO-BC) Platform for Identification of Protein Interactions” (Genomics, Proteomics & Bioinformatics, 2019)

Biological target: T1, N-terminal biotinylated ubiquitin (UniProt P0CG48 1-76, biotin on the N-terminus)
T1 construct: also called Bio-Ub; free ubiquitin peptide; source: bought: BostonBiochem (Catalog No. UB-570)
Assay: pull-down; 5 μg His-tagged protein incubated with 1 μg biotinylated molecule (H4ac peptide or Ub) in 50 mM Tris pH 7.5, 150 mM NaCl, 0.1% NP-40, 2 h at 4 °C; captured on streptavidin-coated beads; immunoblot with anti-V5
Conditions: both partners purified

binding result: binds
B1: V5-His6-tagged RIOK3 protein, purified from E. coli (natural protein, human, UniProt O14730 1-519, looked up)
chain: MDLVGVASPEPGTAAAWGPSKCPWAIPQNTISCSLADVMSEQLAKELQLEEEAAVFPEVAVAEGPFITGENIDTSSDLMLAQMLQMEYDREYDAQLRREEKKFNGDSKVSISFENYRKVHPYEDSDSSEDEVDWQDTRDDPYRPAKPVPTPKKGFIGKGKDITTKHDEVVCGRKNTARMENFAPEFQVGDGIGMDLKLSNHVFNALKQHAYSEERRSARLHEKKEHSTAEKAVDPKTRLLMYKMVNSGMLETITGCISTGKESVVFHAYGGSMEDEKEDSKVIPTECAIKVFKTTLNEFKNRDKYIKDDFRFKDRFSKLNPRKIIRMWAEKEMHNLARMQRAGIPCPTVVLLKKHILVMSFIGHDQVPAPKLKEVKLNSEEMKEAYYQTLHLMRQLYHECTLVHADLSEYNMLWHAGKVWLIDVSQSVEPTHPHGLEFLFRDCRNVSQFFQKGGVKEALSERELFNAVSGLNITADNEADFLAEIEALEKMNEDHVQKNGRKAASFLKDDGDPPLLYDE
notes: also called V5-fused RIOK3; pET-DEST42-RIOK3; source: E. coli DE3 strain, purified
